No end group written: not given here. *: point of attachment. Biotin = O=C1N[C@H]2[C@H](CS[C@H]2CCCCC(=O)*)N1
Experiments:
Experiment in all cases: G3 assay titration, immobilised GST-PDZ
[1] = molecular target: T1, GST-INADL PDZ domain 3 fusion protein (human), Q8NI35
T1 chain: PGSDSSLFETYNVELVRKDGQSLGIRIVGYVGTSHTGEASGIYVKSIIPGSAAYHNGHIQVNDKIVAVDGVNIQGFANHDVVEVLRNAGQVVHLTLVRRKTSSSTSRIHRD

[2] = molecular target: T2, GST-ZO-1 PDZ domain 2 fusion protein (human)
T2 chain: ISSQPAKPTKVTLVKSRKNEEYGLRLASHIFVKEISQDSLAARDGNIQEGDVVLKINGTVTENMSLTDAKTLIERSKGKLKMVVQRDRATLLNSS

[3] = molecular target: T3, GST-TIP1 PDZ domain 1 fusion protein (human), O14907
T3 chain: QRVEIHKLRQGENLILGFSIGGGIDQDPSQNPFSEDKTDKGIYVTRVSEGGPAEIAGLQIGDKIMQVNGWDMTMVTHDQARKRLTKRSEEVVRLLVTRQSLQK

[4] = molecular target: T4, GST-MUPP1 PDZ domain 3 fusion protein (human), O75970
T4 chain: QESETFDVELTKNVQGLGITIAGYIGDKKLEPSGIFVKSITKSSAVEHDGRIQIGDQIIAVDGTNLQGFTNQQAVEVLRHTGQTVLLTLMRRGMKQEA

[5] = molecular target: T5, GST-MINT1 PDZ domain 2 fusion protein (human)
T5 chain: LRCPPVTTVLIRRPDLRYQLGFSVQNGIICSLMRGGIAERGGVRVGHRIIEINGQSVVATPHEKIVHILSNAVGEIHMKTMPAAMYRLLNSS

[6] = molecular target: T6, GST-Syntrophin 1 alpha PDZ domain 1 fusion protein (human), Q13424
T6 chain: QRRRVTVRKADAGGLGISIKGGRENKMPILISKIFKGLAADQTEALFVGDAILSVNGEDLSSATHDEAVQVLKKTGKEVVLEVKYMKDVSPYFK

[7] = molecular target: T7, GST-SITAC 18 PDZ domain 1 fusion protein (human), Q9H190
T7 chain: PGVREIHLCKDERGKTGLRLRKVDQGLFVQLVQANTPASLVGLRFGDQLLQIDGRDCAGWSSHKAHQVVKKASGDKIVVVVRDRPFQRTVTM

[8] = molecular target: T8, GST-MINT1 PDZ domain 1 fusion protein (human)
T8 chain: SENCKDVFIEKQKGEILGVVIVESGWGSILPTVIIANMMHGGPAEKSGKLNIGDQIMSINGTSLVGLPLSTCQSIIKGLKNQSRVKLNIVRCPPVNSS

[9] = molecular target: GST-PAR3L PDZ domain 3 fusion protein (human), Q8TEW8
[10] = molecular target: GST-PAR3 PDZ domain 3 fusion protein (human), Q8TEW0
[11] = molecular target: T9, GST-SITAC 18 PDZ domain 2 fusion protein (human), Q9H190
T9 chain: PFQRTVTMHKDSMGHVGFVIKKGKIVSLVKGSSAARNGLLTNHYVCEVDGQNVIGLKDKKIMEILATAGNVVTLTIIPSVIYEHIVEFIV

[12] = molecular target: T10, GST-MAST2 PDZ domain 1 fusion protein (human), Q6P0Q8
T10 chain: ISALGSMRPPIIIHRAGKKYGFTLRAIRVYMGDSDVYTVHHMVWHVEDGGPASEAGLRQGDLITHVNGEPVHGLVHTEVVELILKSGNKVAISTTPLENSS

[13] = molecular target: T11, GST-KIAA1284 PDZ domain 1 fusion protein (human), Q9ULD6
T11 chain: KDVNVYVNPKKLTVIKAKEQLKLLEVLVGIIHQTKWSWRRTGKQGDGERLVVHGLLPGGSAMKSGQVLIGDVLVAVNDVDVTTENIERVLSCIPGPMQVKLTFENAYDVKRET

[14] = molecular target: T12, GST-RIM2 PDZ domain 1 fusion protein (human)
T12 chain: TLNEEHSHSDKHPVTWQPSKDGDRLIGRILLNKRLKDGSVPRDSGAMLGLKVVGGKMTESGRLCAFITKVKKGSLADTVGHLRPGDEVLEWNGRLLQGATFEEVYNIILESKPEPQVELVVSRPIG

[15] = molecular target: T13, GST-MINT1 PDZ domains 1,2 fusion protein (human)
T13 chain: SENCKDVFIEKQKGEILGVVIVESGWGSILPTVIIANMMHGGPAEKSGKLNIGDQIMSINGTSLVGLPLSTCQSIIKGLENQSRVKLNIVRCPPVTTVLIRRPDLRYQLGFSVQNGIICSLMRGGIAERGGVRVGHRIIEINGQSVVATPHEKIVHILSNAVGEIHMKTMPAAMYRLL

[16] = molecular target: T14, GST-LIM mystique PDZ domain 1 fusion protein (human), Q96JY6
T14 chain: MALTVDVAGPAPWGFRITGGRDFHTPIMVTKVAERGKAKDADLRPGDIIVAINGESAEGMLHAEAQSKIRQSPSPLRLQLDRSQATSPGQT

Chain of GST-PAR3 PDZ domain 3 fusion protein (human), Q8TEW0 (Q8TEW0 other isoform, or with tags, fused parts or gaps): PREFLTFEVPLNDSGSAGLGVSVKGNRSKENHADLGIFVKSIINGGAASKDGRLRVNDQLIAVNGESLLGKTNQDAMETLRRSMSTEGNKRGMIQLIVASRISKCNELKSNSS
Chain of GST-PAR3L PDZ domain 3 fusion protein (human), Q8TEW8 (Q8TEW8 other isoform, or with tags, fused parts or gaps): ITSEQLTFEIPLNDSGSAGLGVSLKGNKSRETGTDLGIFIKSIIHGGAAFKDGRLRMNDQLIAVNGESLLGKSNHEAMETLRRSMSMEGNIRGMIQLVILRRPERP

With Biotin-YGRKKRRQRRRARSDRTIIA [Peptide #1830 (biotin-…)] the EC50 [1] was < 2000 nM, the ODmax (450 nm) [1] was 1.2 OD 450 nm and the EC50 [2] was < 20 nM. It also gave an ODmax (450 nm) [2] of 1.8 OD 450 nm.

In the case of Biotin-YGRKKRRQRRRARTDRKVEV [Peptide #1837 (biotin-…)], the ODmax (450 nm) [1] is reported as 0.37 OD 450 nm, the EC50 [2] is reported as < 20 nM and the ODmax (450 nm) [2] is reported as 1.8 OD 450 nm.

For Biotin-YGRKKRRQRRRARGDRYRIV [Peptide #1845 (biotin-…)], the EC50 [1] was < 100 nM, the ODmax (450 nm) [1] was 2.2 OD 450 nm and the EC50 [2] was < 100 nM. The ODmax (450 nm) [2] was 2.3 OD 450 nm.

With Biotin-YGRKKRRQRRREKHFRETEV [Peptide #AA353 (biotin-…)] the EC50 [3] was < 2 nM and the ODmax (450 nm) [3] was 3 OD 450 nm.

With Biotin-YGRKKRRQRRRQDERRLIVL [Peptide #1842 (biotin-…)] the EC50 [1] was < 1000 nM, the ODmax (450 nm) [1] was 1.9 OD 450 nm and the EC50 [2] was 35 nM. For the same binder, the ODmax (450 nm) [2] was 2.3 OD 450 nm.

YGRKKRRQRRRSTNSVRLML (not fully specified) gave an EC50 [4] of 290 nM, an ODmax (450 nm) [4] of 2.06 OD 450 nm and an EC50 [1] of 120 nM. For the same binder, the ODmax (450 nm) [1] was 1.9 OD 450 nm, the EC50 [5] was < 2000 nM and the ODmax (450 nm) [5] was 0.76 OD 450 nm. For the same binder, the EC50 [6] was 160 nM, the ODmax (450 nm) [6] was 2.05 OD 450 nm and the EC50 [7] was < 1000 nM. The ODmax (450 nm) [7] was 1.7 OD 450 nm, the ODmax (450 nm) [8] was 0.33 OD 450 nm and the EC50 [9] was 100 nM. The ODmax (450 nm) [9] was 1.97 OD 450 nm, the EC50 [10] was 18 nM and the ODmax (450 nm) [10] was 2.5 OD 450 nm. For the same binder, the EC50 [11] was 90 nM, the ODmax (450 nm) [11] was 1.95 OD 450 nm and the EC50 [12] was 110 nM. The ODmax (450 nm) [12] was 2.1 OD 450 nm, the ODmax (450 nm) [13] was 0.63 OD 450 nm and the EC50 [14] was 47 nM. The ODmax (450 nm) [14] was 2.1 OD 450 nm, the EC50 [3] was < 1000 nM and the ODmax (450 nm) [3] was 1.82 OD 450 nm. The EC50 [15] was 180 nM, the ODmax (450 nm) [15] was 1.9 OD 450 nm and the EC50 [16] was 90 nM. For the same binder, the ODmax (450 nm) [16] was 2.1 OD 450 nm, the EC50 [2] was 33 nM and the ODmax (450 nm) [2] was 2.2 OD 450 nm.

Biotin-YGRKKRRQRRRSRTDRKYWA [Peptide #1832 (biotin-…)] was tested, and the EC50 [1] was 200 nM, the ODmax (450 nm) [1] was 0.6 OD 450 nm and the EC50 [2] was < 20 nM. It also gave an ODmax (450 nm) [2] of 2.1 OD 450 nm.

With Biotin-YGRKKRRQRRRARGRRETWV [Peptide #1854 (biotin-…)] the EC50 [1] was < 20 nM, the ODmax (450 nm) [1] was 2.1 OD 450 nm and the ODmax (450 nm) [2] was 2.8 OD 450 nm.

In the case of Biotin-YGRKKRRQRRRARGDRTIIY [Peptide #1848 (biotin-…)], the EC50 [1] is reported as < 2000 nM, the ODmax (450 nm) [1] is reported as 1.2 OD 450 nm and the EC50 [2] is reported as < 20 nM. The ODmax (450 nm) [2] was 2.2 OD 450 nm.

Biotin-YGRKKRRQRRRARGDRLVSL [Peptide #1843 (biotin-…)] was tested, and the EC50 [1] was < 2000 nM, the ODmax (450 nm) [1] was 1.2 OD 450 nm and the EC50 [2] was 17 nM. The ODmax (450 nm) [2] was 2.2 OD 450 nm.

Biotin-YGRKKRRQRRRARSDRTIWA [Peptide #1829 (biotin-…)] gave an ODmax (450 nm) [1] of 1.4 OD 450 nm, an EC50 [2] of 7 nM and an ODmax (450 nm) [2] of 2.9 OD 450 nm.

With Biotin-YGRKKRRQRRRSRTDRKYQI [Peptide #1839 (biotin-…)] the EC50 [1] was 130 nM, the ODmax (450 nm) [1] was 1.6 OD 450 nm and the EC50 [2] was < 20 nM. The ODmax (450 nm) [2] was 2.5 OD 450 nm.

For Biotin-YGRKKRRQRRRARGDRKIRV [Peptide #1836 (biotin-…)], the ODmax (450 nm) [1] was 0.3 OD 450 nm, the EC50 [2] was < 10 nM and the ODmax (450 nm) [2] was 2.6 OD 450 nm.

For Biotin-YGRKKRRQRRRARGDRKYIV [Peptide #1838 (biotin-…)], the EC50 [1] was < 100 nM, the ODmax (450 nm) [1] was 2.6 OD 450 nm and the EC50 [2] was < 100 nM. The ODmax (450 nm) [2] was 2.6 OD 450 nm.

With Biotin-YGRKKRRQRRRARGTRLVWV [Peptide #1844 (biotin-…)] the EC50 [1] was < 20 nM, the ODmax (450 nm) [1] was 2.4 OD 450 nm and the EC50 [2] was < 20 nM. For the same binder, the ODmax (450 nm) [2] was 2.6 OD 450 nm.
